In US20090054250, “Methods to create fluorescent biosensors using aptamers with fluorescent base analogs” (published 2009) one finds binding signal data, which are given here for 6 molecules.

Data set [1] deals with T1, alpha-thrombin (Homo sapiens, UniProt P00734;P00734 P00734:328-363,P00734:364-622). The data set is described as follows: 3MI fluorescence at saturating protein.
Data set [2] concerns the target T1, alpha-thrombin. The data set is described as follows: 3MI signal of streptavidin-aptamer complex; AlexaFluor 430 up 1.9-fold.
In data set [3] the target is T1, alpha-thrombin. The data set is described as follows: 6MAP fluorescence at saturating protein.
Data set [4] has as its target T1, alpha-thrombin. The data set is described as follows: 3MI signal, 350 nm excitation; AlexaFluor 430 FRET signal up 2.9-fold.
In data set [5] the target is PDGF-BB (platelet-derived growth factor B homodimer) (UniProt P01127 P01127:82-190). The data set is described as follows: saturating protein. The following applies: chain copies: 2 stated, three-helix junction.
Sequence of PDGF-BB (platelet-derived growth factor B homodimer) (P01127 82-190, one chain of several): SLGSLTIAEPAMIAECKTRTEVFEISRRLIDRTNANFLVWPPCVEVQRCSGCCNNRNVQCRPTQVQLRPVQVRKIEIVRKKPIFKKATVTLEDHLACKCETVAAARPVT

B1: thrombin aptamer 3MI-7 (ssDNA)
DNA: GGTTGGTGTGGTTGG
modifications: n at position 7 is 3-methylisoxanthopterin replacing T [7 (3-methylisoxanthopterin replacing T)]
Consider B1, for which the binding signal in the data set with alpha-thrombin [1] is 9.7 fold fluorescence increase.

B2: thrombin aptamer 3MI-7 biotin (ssDNA)
DNA: GGTTGGTGTGGTTGG
modifications: n at position 7 is 3-methylisoxanthopterin; 5' 40-atom linker [7 (3-methylisoxanthopterin replacing T); 5' 40-atom linker with biotin left out]
B2: the binding signal with alpha-thrombin [2] was ~7.1 fold fluorescence increase.

B3: thrombin aptamer 6MAP-7 (ssDNA)
DNA: GGTTGGTGTGGTTGG
modifications: n at position 7 is 4-amino-6-methyl-pteridone (6MAP) replacing T [7 (6MAP replacing T)]
Turning to B3, the binding signal with alpha-thrombin [3] is 32.9 fold fluorescence increase.

B4: thrombin aptamer 3MI-7 AlexaFluor 430 (ssDNA)
DNA: GGTTGGTGTGGTTGG
modifications: n at position 7 is 3-methylisoxanthopterin; 5' 21-atom amino linker [7 (3-methylisoxanthopterin replacing T); 5' 21-atom amino linker with AlexaFluor 430 left out]
Take B4: in the data set with alpha-thrombin [4], the binding signal was ~7.5 fold fluorescence increase.

B5: PDGF-B aptamer 6MAP-22 (ssDNA)
DNA: CACAGGCTACGGCACGTAGAGCATCACCATGATCCTGTG
modifications: n at position 22 is 6MAP replacing C [22 (6MAP replacing C)]
For the molecule B5, in data set [5] (label: 6MAP), the binding signal is 6.7 fold fluorescence increase.

B6: PDGF-B aptamer 3MI-22 (ssDNA)
DNA: B5 DNA
modifications: n at position 22 is 3-methylisoxanthopterin replacing C [22 (3-methylisoxanthopterin replacing C)]
Turning to B6, the binding signal in data set [5] (label: 3MI) is 2.5 fold fluorescence increase.
